The values that follow come from patent US20250163181A1.

Assay [1] has as its target human prothrombin wild-type (human) (UniProt P00734). The assay is described as follows: SPR, calculated from Kd; prothrombin with 200 µM argatroban.
Assay [2] has the same target. The assay is described as follows: SPR, AHP immobilised, HEPES buffer, 25 C. A general note: Surface plasmon resonance follows binding to a sensor surface in real time, without labels.
In assay [3] the target is prothrombin variant S91A/Y93A (human) (UniProt P00734). In words: SPR, AHP immobilised, HEPES buffer, 25 C.
In assay [4] the target is kringle-2 of human prothrombin (amino acids 156-271) (human) (UniProt P00734). The assay is described as follows: SPR, AHP immobilised, HEPES buffer, 25 C.
Assay [5] deals with human prothrombin wild-type (human) (UniProt P00734). In words: ELISA, antigen immobilised, Hill fit. A general note: ELISA stands for enzyme-linked immunosorbent assay.
Assay [6] addresses prothrombin variant S91A/Y93A (human) (UniProt P00734). The assay is described as follows: ELISA, antigen immobilised, Hill fit.
Assay [7] has as its target kringle-2 of human prothrombin (amino acids 156-271) (human) (UniProt P00734). The assay is described as follows: ELISA, antigen immobilised, Hill fit.
Assay [8] concerns the target human prothrombin wild-type (human) (UniProt P00734). In words: SPR, AHP immobilised; prothrombin with 200 µM argatroban (open form).
For assay [9] the target is unchanged. The assay is described as follows: SPR, calculated from Kd.
For assay [10], the target named is prothrombin variant S91A/Y93A (human) (UniProt P00734). In words: SPR, calculated from Kd.
Assay [11] has as its target kringle-2 of human prothrombin (amino acids 156-271) (human) (UniProt P00734). In words: SPR, calculated from Kd.

What is called Kd is the free concentration of one partner at which half of the binding sites on the other are occupied at equilibrium, for simple one-to-one binding. Higher therefore signals lower affinity. For orientation: koff means a measure of how fast the partners let go of each other. Read a high koff as a short-lived complex. A word on the kon: it is the second-order rate constant of association. Low readings indicate slower complex formation, high ones faster complex formation. In general, EC50 refers to the concentration that produces a half-maximal response. The low end stands for higher potency in that assay, the high end for lower potency in that assay. Take Antibody AHP (Prolytix AHP-5013): the ΔG in assay [1] was -10.1 kcal/mol; in assay [9], -10.1 kcal/mol; in [10], -10.5 kcal/mol; in assay [11], -10.3 kcal/mol. Besides, the dissociation constant Kd was 0.0383 µM in assay [2], 0.0195 µM in assay [3], 0.0278 µM in assay [4] and 0.0374 µM in assay [8]. The dissociation rate constant (koff) came to 0.000136 s⁻¹ in [2], 0.000123 s⁻¹ in assay [3], 0.000128 s⁻¹ in assay [4] and 0.000122 s⁻¹ in assay [8]. The kon turned out to be 3540 M⁻¹ s⁻¹ in assay [2], 6320 M⁻¹ s⁻¹ in assay [3], 4600 M⁻¹ s⁻¹ in assay [4] and 3270 M⁻¹ s⁻¹ in assay [8]. For the same substance, the EC50 in assay [5] is 0.195 µg/mL; in assay [6], 0.185 µg/mL; in [7], 0.249 µg/mL.
